This is an account of results in paper PMC3072145.

One series concerns the target Hfq-65 (Escherichia coli, UniProt P0A6X3 1-65, del66-102). The series can be described thus: EMSA. On the technique in general: A gel shift assay detects complexes by their altered migration in electrophoresis.
The next series concerns the target Hfq-75 (Escherichia coli, UniProt P0A6X3 1-75, del76-102). Put plainly: EMSA.

AAAAAAAAAAAAAAAAAA (ssRNA) [rA18]: the binding result with Hfq-65 and with Hfq-75 was “binds” throughout.
